Laboratory results taken from patent publication US9731036 (dated 2017).
Residue numbers refer to the chain shown, from its start. Names may count otherwise. Blank lines part the entries; values can stand above or below the molecule they belong to.

T1: CEACAM1 protein (CD66a), whole, on cells (human, UniProt P13688 35-526)
T1 construct: whole, on cells; also called CCM1
T1 sequence (looked up): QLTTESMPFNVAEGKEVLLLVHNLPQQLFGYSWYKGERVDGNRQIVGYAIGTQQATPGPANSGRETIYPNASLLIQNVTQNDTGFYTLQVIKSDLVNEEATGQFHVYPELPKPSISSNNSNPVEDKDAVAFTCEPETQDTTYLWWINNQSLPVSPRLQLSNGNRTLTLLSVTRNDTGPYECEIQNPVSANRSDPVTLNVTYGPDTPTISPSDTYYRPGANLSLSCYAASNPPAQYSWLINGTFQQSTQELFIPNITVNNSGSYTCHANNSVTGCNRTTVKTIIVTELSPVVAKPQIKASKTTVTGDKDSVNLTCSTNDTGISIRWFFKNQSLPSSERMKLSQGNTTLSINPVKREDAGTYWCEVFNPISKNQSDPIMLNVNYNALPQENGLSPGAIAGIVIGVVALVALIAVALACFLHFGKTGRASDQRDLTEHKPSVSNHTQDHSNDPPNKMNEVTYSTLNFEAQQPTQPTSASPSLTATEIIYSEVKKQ

T2: CEACAM6 protein, whole, on 721.221 cells (human, UniProt P40199 35-320, GPI-anchored to the cell membrane)
T2 construct: whole, on cells; also called CCM6; CD66c
T2 sequence (looked up): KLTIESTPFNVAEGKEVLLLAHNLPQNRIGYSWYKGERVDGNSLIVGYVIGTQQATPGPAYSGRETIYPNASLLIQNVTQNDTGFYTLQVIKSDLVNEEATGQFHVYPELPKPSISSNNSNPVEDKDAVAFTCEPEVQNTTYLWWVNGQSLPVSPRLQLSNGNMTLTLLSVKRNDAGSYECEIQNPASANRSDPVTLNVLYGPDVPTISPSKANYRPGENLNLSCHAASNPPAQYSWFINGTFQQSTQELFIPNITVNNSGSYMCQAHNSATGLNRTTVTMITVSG

T3: CCM1-RQ43,44SL (CEACAM1 with S and L at positions 43 and 44 instead of R and Q) (human, UniProt P13688 35-526)
T3 construct: whole, on cells; also called CEACAM 1-RQ43,44SL
T3 sequence (looked up): T1 sequence (looked up) with R43S, Q44L

T4: CCM1-R43A (CEACAM1 with 43R changed to 43A) (human, UniProt P13688 35-526)
T4 construct: whole, on cells; Expression lower than that of the other transfectants; also called CEACAM1-R43A
T4 sequence (looked up): T1 sequence (looked up) with R43A

T5: CCM1-Q44L (CEACAM1 with 44Q changed to 44L) (human, UniProt P13688 35-526)
T5 construct: whole, on cells; also called CEACAM1-Q44L
T5 sequence (looked up): T1 sequence (looked up) with Q44L

B1: CCM6-TailCCM1 (entire extracellular portion of CEACAM6 fused to the transmembrane and tail portions of CEACAM1) (receptor, human, UniProt P40199 35-320, looked up)
chain: KLTIESTPFNVAEGKEVLLLAHNLPQNRIGYSWYKGERVDGNSLIVGYVIGTQQATPGPAYSGRETIYPNASLLIQNVTQNDTGFYTLQVIKSDLVNEEATGQFHVYPELPKPSISSNNSNPVEDKDAVAFTCEPEVQNTTYLWWVNGQSLPVSPRLQLSNGNMTLTLLSVKRNDAGSYECEIQNPASANRSDPVTLNVLYGPDVPTISPSKANYRPGENLNLSCHAASNPPAQYSWFINGTFQQSTQELFIPNITVNNSGSYMCQAHNSATGLNRTTVTMITVSGAIAGIVIGVVALVALIAVALACFLHFGKTGRASDQRDLTEHKPSVSNHTQDHSNDPPNKMNEVTYSTLNFEAQQPTQPTSASPSLTATEIIYSEVKKQ
notes: extracellular domain;domain: transmembrane and tail portions
B2: CCM6-SL43,44RQ (CEACAM6 with R and Q at positions 43 and 44 instead of S and L) (receptor, human, UniProt P40199 35-320, looked up)
chain: T2 sequence (looked up) with S43R, L44Q
notes: whole, on cells; also called CEACAM6-SL43,44RQ
B3: CCM6-S43R (CEACAM6 with 43S changed to 43R) (receptor, human, UniProt P40199 35-320, looked up)
chain: T2 sequence (looked up) with S43R
notes: whole, on cells; also called CEACAM6-S43R
B4: CCM6-L44Q (CEACAM6 with 44L changed to 44Q) (receptor, human, UniProt P40199 35-320, looked up)
chain: T2 sequence (looked up) with L44Q
notes: whole, on cells; also called CEACAM6-L44Q
B5: CD99-Ig fusion protein (control) (Fc fusion, UniProt P14209 23-122, looked up)
chain: DGGFDLSDALPDNENKKPTAIPKKPSAGDDFDLGDAVVDGENDDPRPPNPPKPMPNPNPNHPSSSGSFSDADLADGVSGGEGKGGSDGGGSHRKEGEEAD
notes: extracellular domain; Made in COS-7 cells, purified on protein G; construct described elsewhere; also called control CD99-Ig; not shown: human IgG1 Fc portion
B6: CEACAM1-Ig fusion protein (extracellular portion of CEACAM1 fused to the Fc portion of human IgG1) (Fc fusion, UniProt P13688 35-428, looked up)
chain: QLTTESMPFNVAEGKEVLLLVHNLPQQLFGYSWYKGERVDGNRQIVGYAIGTQQATPGPANSGRETIYPNASLLIQNVTQNDTGFYTLQVIKSDLVNEEATGQFHVYPELPKPSISSNNSNPVEDKDAVAFTCEPETQDTTYLWWINNQSLPVSPRLQLSNGNRTLTLLSVTRNDTGPYECEIQNPVSANRSDPVTLNVTYGPDTPTISPSDTYYRPGANLSLSCYAASNPPAQYSWLINGTFQQSTQELFIPNITVNNSGSYTCHANNSVTGCNRTTVKTIIVTELSPVVAKPQIKASKTTVTGDKDSVNLTCSTNDTGISIRWFFKNQSLPSSERMKLSQGNTTLSINPVKREDAGTYWCEVFNPISKNQSDPIMLNVNYNALPQENGLSPG
notes: extracellular domain; Made in COS-7 cells, purified on protein G. A silent nucleotide change (A885G, glycine 281 unchanged) removes a BamHI site; also called CCM1-Ig; soluble CEACAM1-Ig; not shown: Fc portion of human IgG1

Experiments:
[1] = molecular target: T1, CEACAM1 protein (CD66a), whole, on cells; assay: cell-based or functional assay
[2] = molecular target: B6; assay: flow cytometry on 721.221 transfectants
Excerpt: (§1) The staining of the secondary reagent FITC-conjugated goat anti-mouse F(ab_)2 of each cell type was used as background (_). The y-axis indicates the median fluorescence intensity (MFI). […] The y-axis indicates the median fluorescence intensity (MFI). […] The E:T cell ratio was 2:1.
(§2) Specificity of CEACAM1 Binding to CEACAM6 is Controlled by the Presence of Both 43R and 44Q Residues To determine whether both residues are required for binding, the amino acid residues in positions 43 and 44 in CEACAM1 (contains 43R44Q) and CEACAM6 (contains 43S44L) were mutated. Using site-directed mutagenesis in the CEACAM1, the 43R residue was changed to 43A (CCM1-R43A) and the 44Q residue was changed to 44L (CCM1-Q44L). In CEACAM6, the 43S was changed to 43R (CCM6-S43R) and 44L was changed to 44Q (CCM6-L44Q). All mutants were generated as described in Materials and Methods and stably transfected into 0.221 cells. The expression level was monitored by Kat4c mAb, and conformation was monitored by 5F4 mAb (FIG. 7A). […] Similar results were obtained when both 44Q and 43R residues in CEACAM1 were mutated (FIG. 5).

[3] = molecular target: T1, CEACAM1 protein (CD66a), whole, on cells; assay: flow cytometry on 721.221 transfectants
Excerpt: as §1, §2

[4] = molecular target: T2, CEACAM6 protein, whole, on 721.221 cells; assay: flow cytometry on 721.221 transfectants
Excerpt: as §1, §2

[5] = molecular target: T3, CCM1-RQ43,44SL (CEACAM1 with S and L at …); assay: flow cytometry on 721.221 transfectants
Excerpt: as §1, §2

[6] = molecular target: B2; assay: flow cytometry on 721.221 transfectants
Excerpt: as §1, §2

[7] = molecular target: T4, CCM1-R43A (CEACAM1 with 43R changed to …); assay: flow cytometry on 721.221 transfectants
Excerpt: as §1, §2

[8] = molecular target: T5, CCM1-Q44L (CEACAM1 with 44Q changed to …); assay: flow cytometry on 721.221 transfectants
Excerpt: as §1, §2

- intracellular IFN-gamma staining of the NKT clone after cross-linking with Kat4c (fold above background) [1]: 4.5
Molecule: mAb Kat4c (DakoCytomation), directed against CEACAM1, -5, -6, and -8 (antibody)

Molecule: B1
- binding result [2]: no binding

Molecule: B2
- binding result [2]: binds

Molecule: B3
- binding result [2]: no binding

Molecule: B4
- binding result [2]: no binding

Molecule: B5
- binding result [3]: no binding
- binding result [4]: no binding
- binding result [5]: no binding
- binding result [6]: no binding

Molecule: B6
- binding result [5]: no binding
- binding result [7]: no binding
- binding result [8]: no binding
